Experimental data reported in patent US20170037092A1.

Biological target: HLA-A*02:01 (human)
Assay: UV-ligand exchange ELISA

SLTETIEGV (modifications not checked) […]
peptide exchange yield: 20 to 50%
